Assay: soluble on expression in E. coli; label from the status in PepcDB or PDB records

| Sequence | soluble on expression in E. coli |
| --- | --- |
| MVTFMITSALHRAADWAKSVFSSAALGDPRRTARLVNVAAQLAKYSGKSITISSEGSKAAQEGAYRFIRNPNVSAEAIRKAGAMQTVKLAQEFPELLAIEDTTSLSYRHQVAEELGKLGSIQDKSRGWWVHSVLLLEATTFRTVGLLHQEWWMRPDDPADADEKESGKWLAAAATSRLRMGSMMSNVIAVCDREADIHAYLQDKLAHNERFVVRSKHPRKDVESGLYLYDHLKNQPELGGYQISIPQKGVVDKRGKRKNRPARKASLSLRSGRITLKQGNITLNAVLAEEINPPKGETPLKWLLLTSEPVESLAQALRVIDIYTHRWRIEEFHKAWKTGAGAERQRMEEPDNLERMVSILSFVAVRLLQLRESFTPPQALRAQGLLKEAEHVESQSAETVLTPDECQLLGYLDKGKRKRKEKAGSLQWAYMAIARLGGFMDSKRTGIASWGALWEGWEALQSKLDGFLAAKDLMAQGIKIG | soluble |
| MVTINNARKILQRVDTLPLYLHAYAFHLNMRLERVLPADLLDIASENNLRGVKIHVLDGERFSLGNMDDKELSAFGDKARRLNLDIHIETSASDKASIDEAVAIALKTGASSVRFYPRYEGNLRDVLSIIANDIAYVRETYQDSGLTFTIEQHEDLKSHELVSLVKESEMESLSLLFDFANMINANEHPIDALKTMAPHITQVHIKDALIVKEPGGLGHKACISGQGDMPFKALLTHLICLGDDEPQVTAYGLEEEVDYYAPAFRFEDEDDNPWIPYRQMSETPLPENHLLDARLRKEKEDAINQINHVRNVLQQIKQEANHLLNH | soluble |
| MVTLCHVFGVHRSSYRYWKNRPEKPDGRRAVLRSQVLELHGISHGSAGARSIATMATRRGYQMGRWLAGRLMKELGLVSCQQPTHRYKRGGHEHVAIPNYLERQFAVTEPNQVWCGDVTYIWTGKRWAYLAVVLDLFARKPVGWAMSFSPDSRLTMKALEMAWETRGKPGGVMFHSDQGSHYTSRQFRQLLWRYQIRQSMSRRGNCWDNSPMERFFRSLKNEWMPVVGYVSFSKAAHAITDYIVGYYSALRPHEYNGGLPPNESENRYWKNSNSVASFC | not soluble |
| MVVFDLSWTLVQADSFELLCQAAAVDADAVAEVRRCHSLGSDDDLRACAALLRGRSSTGLAERLHALIEYTDGAASVCRVLKKLGYRTTVLSPGRSFLRELVKADLGIDFVAANRHEMDSNEHFTGAILELLVNGERKAELLTMLAMREQLSPQQIIAVGDGPVSAKMLDSAGPSIAFGAPAARDGTNIGGKIQSKSLTCIWFLMGIHERDLRSFS | soluble |
| MVVGVAGYYGFRNAGDEAILEAIARELKARGHEVVALSGDPKRTREDHGLRAYHRLNPLALLRADLWLLGGGGLLQDATSALSLTYYLSVLRLARLFRKRVVVFNQSLGPLSPWGERRVRKALQGVPVILRDQDSLEYARRLGIPAALGADPALLLPPPPVPREEDLVLVIPRAGVREEALTTLYVAANHLVHEGKQVLVLLLQPGYDDEVAEVFRLHRIERTSDPRRLLYLAAQAGYVISMRLHGLILAAAAGTPFAALSYDPKVAAFAKETGAYYQELPGEPIKLYKAALYGRFPDWEKVARLKERARQSFDLALGEGVPIKGSGRG | soluble |
| MVVKEKVVNEMQEVKEMIDTLVNNGRKALQALESFTQEQIDNIVHEMALAGVDQHMPLAKLAVEETGRGVYEDKCIKNIFATEYIWHSIKKDKTVGIIHEDPHEEIIEIAEPVGVVAGVTPVTNPTSTTMFKALIAIKTRNPIIFAFHPSAQNCSVAAAKTVYDAAVKAGAPKHCIQWIEKPSVEATKQLMNHEGVALVLATGGAGMVKSAYSTGKPALGVGPGNVPCYIEKSAHIKRAVNDLILSKTFDNGMICASEQAIIVDKEIYDDVKTEMITNDCYFVTEEERRKLEKLVINENTCAVNSDIVGKSAQYIAELVGITVPKNTKMLVAEIQGIGAAYPLSREKLSPVLACVKANSLEEGFTYCEEMLNLGGLGHSAVIHSVNKEVQKQFGLRMKACRLIVNAPSSQGGIGDIYNGFIPSLTLGCGSYGKNSVSQNVTATHLLNIKRLANRKKNMQWFKLPPKIYFEKHATAYLANMPNISRAFIVTDPGMVEHGYVDTVAHYLRKHANDVKVEVFFEVEPDPSDETVFKGAEMMRSFQPDVIIALGGGSAMDAAKGMWLFYEYPETTFYGIKQKFLDIRKRTCKYPELGSKAQFVAIPTTSGTGSEVTPFAVITDKKNNIKYPLADYELTPDVAIVDPQFVMTVPPHVTADTGMDVLTHAIEAYVSVLANDYTDGLALKAIDLVFKYLPRAFKDGHDEEAREKMHNASAIAGMAFANAFLGINHSLAHKIGPEFHIPHGRANAILMPHVIRYNAIKPRKHALFPKYEHFVADERYAHIARMLGLPASSVAEGVESLDKAIIDLGKSLNINMSIAGQGVAKDQFEEVVGLLAERAFEDQCTTANPKLPLISELKEIYMKAYKGE | not soluble |
| MVVYDCLTDEDFLQKSEHGIGKKAIYYFYGERCPSCESIKPLFDDLCKKYEKTALVYTYPCYNDDQLTGDAFAVNAVPTFVVMNNGEEVTRHVGAEAEKVQELFEKYAV | not soluble |
| MVWDVETAKRFLEVIRNETIYYPVLIALHTGMRAGEIVSLKWYDVNFEARIISVVKSVRNNRGLKTSDVKTKTSKRSVYINDVLFSELKNLYETIKPKPDDFVCPRLPTGNLTVGYLSKRFKLLVKRYNFPVIRFHDLRHTFATLMLSLGVNTKIVAEILGHSDIKLTADTYSHVLPTMQESAMKEFSKLWKLEHHHHHH | soluble |
| MVWSAFLHFYQIGNSGSNAYYTAAAKSMAASWKAFFFAALDPAGFITVDKPPVALWLQALSVKVFGVSDFSVLLPEALAADCIRGRAVWFACAAGVLVVDARVGRDKQHDSVCRTGFASGRSGHAGCWDAGGARWALAGRAKHRAAEDGNRLRDNSSLAALVVYLEQHAGKAKYLAATIRATEAAEMMLHTDRAVMAMGGFGGTDPVLTPEKLEQMAQNGEVKYFLLSGEDRGNNELVQWIQTHCKEVPSSQWGGGQSAAIGGMGRGGMTLYVYNG | not soluble |
| MVYDLIVIGGGSGGMAAARRAARHNAKVALVEKSRLGGTCVNVGCVPKKIMFNAASVHDILENSRHYGFDTKFSFNLPLLVERRDKYIQRLNNIYRQNLSKDKVDLYEGTASFLSENRILIKGTKDNNNKDNGPLNEEILEGRNILIAVGNKPVFPPVKGIENTISSDEFFNIKESKKIGIVGSGYIAVELINVIKRLGIDSYIFARGNRILRKFDESVINVLENDMKKNNINIVTFADVVEIKKVSDKNLSIHLSDGRIYEHFDHVIYCVGRSPDTENLKLEKLNVETNNNYIVVDENQRTSVNNIYAVGDCCMVKKSKEIEDLNLLKLYNEERYLNKKENVTEDIFYNVQLTPVAINAGRLLADRLFLKKTRKTNYKLIPTVIFSHPPIGTIGLSEEAAIQIYGKENVKIYESKFTNLFFSVYDIEPELKEKTYLKLVCVGKDELIKGLHIIGLNADEIVQGFAVALKMNATKKDFDETIPIHPTAAEEFLTLQPWMK | soluble |
| MWFGEFGGQYVPETLIEPLKELEKAYKRFKDDEEFNRQLNYYLKTWAGRPTPLYYAKRLTEKIGGAKIYLKREDLVHGGAHKTNNAIGQALLAKFMGKTRLIAETGAGQHGVATAMAGALLGMKVDIYMGAEDVERQKMNVFRMKLLGANVIPVNSGSRTLKDAINEALRDWVATFEYTHYLIGSVVGPHPYPTIVRDFQSVIGREAKAQILEAEGQLPDVIVACVGGGSNAMGIFYPFVNDKKVKLVGVEAGGKGLESGKHSASLNAGQVGVFHGMLSYFLQDEEGQIKPTHSIAPGLDYPGVGPEHAYLKKIQRAEYVTVTDEEALKAFHELSRTEGIIPALESAHAVAYAMKLAKEMSRDEIIIVNLSGRGDKDLDIVLKVSGNV | soluble |
| MWFRNLLVYRLTQDLQLDADSLEKALGEKSARPCASQELTTYGFTAPFGKGPDAPLVHVSQDFFLISARKEERILPGSVVRDALKEKVDEIEAQQMRKVYKKERDQLKDEIVQTLLPRAFIRRSSTFAAIAPSLGLILVDSASAKKAEDLLSTLREALGSLPVRPLSVKVAPTATLTDWVKTQEAAGDFHVLDECELRDTHEDGGVVRCKRQDLTSEEIQLHLTAGKLVTQLSLAWSDKLSFVLDDKLAVKRLRFEDLLQEQAEKDGGEDALGQLDASFTLMMLTFAEFLPALFEALGGEEIPQGV | soluble |
